According to publication PMC7108782, “Direct interaction of metastasis-inducing S100P protein with tubulin causes enhanced cell migration without changes in cell adhesion” (Biochemical Journal, 2020):
Several values for one entry are separate records, joined by “and”; a condition that tells them apart may be missing. Identical values can stand only once.

Experiments:
[1] = test system: tubulin polymerisation in COS-7 S10 cells; assay: In vivo tubulin polymerisation assay, COS-7 / COS-7 S10; assay type: cell-based, monkey
Description: (§1) HeLa and S100P-inducible HeLa, COS-7 and S100P-inducible COS-7 cells were routinely cultured with or without doxycycline (1 µg/ml) and treated with 33 µM nocodazole for 24 h to synchronise the cells. Then the nocodazole was washed away (First release) and the synchronised cells were cultured in normal medium for 4 h to allow them to complete cell division. The nocodazole was then added again for 4 h to dissociate all the MTs. After this time, nocodazole was again removed by extensive washings (Second release) and tubulin was allowed to polymerise in the interphase of the cell cycle for different times. The cells were treated with buffer (10 mM Tris–HCl, 150 mM KCl, pH 7.4, 2% (v/v) Triton X-100) and the Triton-X100-insoluble tubulins (representing the newly formed MTs) were solubilised in Sample Buffer and quantified by Western blotting. To test the effect of tubulin-derived peptides, 20 µM T-DIC, T-DLV, T-IMN and tag-peptide alone (Supplementary Table S3) in 0.25% (v/v) DMSO as solvent, as well as the solvent control 0.25% (v/v) DMSO were added immediately after the second release in Sample Buffer and quantified at the different time points by Western blotting.

[2] = test system: tubulin polymerisation in HeLa-A19 cells; assay: In vivo tubulin polymerisation assay, HeLa / HeLa-A19; assay type: cell-based, human; conditions: HeLa-A19, 4 h after second release, 1 µg/ml doxycycline
Description: as §1

[3] = test system: COS-7 S10 cells; assay: Boyden chamber cell migration, S100P-inducible COS-7; assay type: cell-based, monkey; conditions: 24 h
Source text: (§2) Cell migration rate (%) = M/G × 100.

[4] = test system: HeLa-A3 cells; assay: S100P-enhanced cell migration, HeLa-A3; assay type: cell-based, human; conditions: HeLa-A3, doxycycline 1 µg/ml, 24 h
Source text: as §2

[5] = test system: α, β-tubulins; assay: Pulldown assay, His-S100P beads with COS-7 cell lysates; assay type: binding, monkey; conditions: 1 mM CaCl2 vs EGTA
Description: […] After brief sonication, the lysates were centrifuged at 15,000g for 30 min to remove insoluble components. The supernatants were then applied to His-S100P columns or control column with His-binding beads only. After extensive washings with 10 mM Tris–HCl, pH 7.4, 150 mM NaCl, 0.5% (v/v) Tween 20, the bound proteins were eluted with 300 mM imidazole and then subjected to Western blotting using mouse anti-S100P mAb and anti-tubulin antibodies (R&D Systems, Abingdon, U.K.).

[6] = test system: tubulin; assay: Co-immunoprecipitation, COS-7 S10 lysates; assay type: binding, monkey; conditions: S100P-induced COS-7 S10 lysates, 0.5 mM CaCl2
Description: For co-immunoprecipitations, S100P-inducible COS-7 cells were incubated with 1 µg/ml doxycycline for 16 h and lysed in RIPA buffer (Thermo Fisher Scientific, Loughborough, U.K.) with 0.5 mM CaCl2. After sonication and centrifugation as described above, control antibody (rabbit IgG from Sigma), anti-tubulin or anti-S100P were added to three separate tubes containing 0.7 ml each of cell lysate and incubated overnight at 4°C. Then 100 µl Dynabeads® ProteinG (Thermo Fisher Scientific) were added to each tube and the contents incubated for 4 h at 4°C. After extensive washings with washing buffer (10 mM Tris–HCl, pH 7.4, 150 mM NaCl, 1% (v/v) Triton X-100, 0.2 mM sodium orthovanadate), the bound proteins were eluted with 0.1 M glycine pH 2.5 and then subjected to Western blotting using the paired antibodies together with a sample of the input and the last wash.

[7] = test system: COS-7 S10 cells; assay: Cell adhesion assays, COS-7 S10; assay type: cell-based, monkey
Description: For kinetics of attachment either HeLa-A3 or COS-7 S10 cells were induced with 1 µg/ml doxycycline 48 h prior to experiment and 2 × 10^5 uninduced or induced cells in 1 ml were added to 24 well tissue culture dishes and allowed to adhere at 37°C. At the given time (30 min to 2 h) cells were washed 2× with PBS and detached with 250 µl 0.05% (w/v) trypsin in versene for 5 min at 37°C, neutralised in serum-containing media (SCM), counted and the percent of seeded cells recorded. For strength of adhesion, the same cells were seeded in 24 well tissue culture dishes so as to yield 80% confluence in 24 h. In all cases identical dishes were set up for test and control. After 24 h, wells were washed 2× and detached with 250 µl, 0.0125% (w/v) trypsin in versene for 5 min at 37°C. Wells were then carefully washed 2× to remove weak binders. Trypsin in versene (250 µl of 0.05% (w/v)) was then added to both test dish and control dish for 5 min to remove all cells from the well, neutralised with SCM and counted. The proportion of cells remaining after the weak digestion step was determined from the ratio of results from test and control plates. All assays were performed in triplicate.

[8] = test system: HeLa cells; conditions: inducible HeLa (range stated for Rama 37 and HeLa) ref [10],[37]; cited from earlier work
Source text: (§3) In our previous study, we reported that S100P enhances cell migration by binding to and affecting distribution of NMIIA filaments in HeLa and Rama 37 cells. We now sought to determine whether S100P overexpression could induce such changes in cells when NMIIA was absent. The monkey kidney COS-7 cells have been reported to lack NMIIA [28] and this was confirmed in comparison with its presence in human HeLa and rat Rama 37 cells (Figure 1A). We then generated three S100P-inducible COS-7 cell lines using doxycycline as the inducing agent, the largest increase being in clone S10 (Figure 1B ...

[9] = test system: Rama 37 cells; conditions: inducible Rama 37 (range stated for Rama 37 and HeLa) ref [10],[37]; cited from earlier work
Source text: as §3

B1: S100P: recombinant or doxycycline-induced overexpressed S100P protein (protein)
chain: MTELETAMGMIIDVFSRYSGSEGSTQTLTKGELKVLMEKELPGFLQSGKDKDAVDKLLKDLDANGDAQVDFSEFIVFVAAITSACHKYFEKAGLK
reduction in tubulin polymerisation on S100P induction ([1]; COS-7 S10, 4 h after second release, 1 µg/ml doxycycline): ~30% | near steady-state reduction in biochemical assembly of MTs ([1]; Figure 5E, COS-7 S10): 33% | reduction in tubulin polymerisation on S100P induction [2]: 31% and ~30% | S100P-enhanced cell migration ([3]; COS-7 S10, doxycycline 1 µg/ml): 2–3 folds | fold increase in relative cell migration rate on S100P induction ([3]; three inducible COS-7 lines S7, S10, S23, 1 µg/ml doxycycline): 2.5 to 2.9 fold | S100P-enhanced cell migration [4]: 3–4 folds | α, β-tubulins captured by His-S100P [5]: detected in eluates, but only when 1 mM CaCl2 but not EGTA was originally present | complex with tubulin in immunoprecipitates [6]: immunoprecipitates produced with anti-S100P also contained tubulin | change in rate and strength of adhesion (in words) ([7]; COS-7 S10, 1 µg/ml doxycycline, P ≥ 0.18): no significant decrease in the rate of adhesion (Supplementary Figure S1) or significant decrease in strength of adhesion | change in strength of adhesion (in words) ([7]; COS-7 S10, S100P induced vs uninduced, n = 3): significant change in the strength of adhesion upon induction of S100P (t = 0.6, P = 0.95, n = 3) | fold increase in migration on S100P overexpression [8]: 3.2 to 4.8 fold | fold increase in migration on S100P overexpression [9]: 3.2 to 4.8 fold
